One molecule from PMC6614809, “The ATP-dependent chromatin remodelling enzyme Uls1 prevents Topoisomerase II poisoning” (Nucleic Acids Research, 2019) can be followed below.

In the assay the target is T1, Full length Top2 (HFP185), purified (budding yeast (S. cerevisiae), UniProt P06786 1-1428).
T1 construct: Topoisomerase II (Top2), yeast, full length; Called a homodimer in the methods; also called Topoisomerase II; yeast Top2
T1 sequence (looked up): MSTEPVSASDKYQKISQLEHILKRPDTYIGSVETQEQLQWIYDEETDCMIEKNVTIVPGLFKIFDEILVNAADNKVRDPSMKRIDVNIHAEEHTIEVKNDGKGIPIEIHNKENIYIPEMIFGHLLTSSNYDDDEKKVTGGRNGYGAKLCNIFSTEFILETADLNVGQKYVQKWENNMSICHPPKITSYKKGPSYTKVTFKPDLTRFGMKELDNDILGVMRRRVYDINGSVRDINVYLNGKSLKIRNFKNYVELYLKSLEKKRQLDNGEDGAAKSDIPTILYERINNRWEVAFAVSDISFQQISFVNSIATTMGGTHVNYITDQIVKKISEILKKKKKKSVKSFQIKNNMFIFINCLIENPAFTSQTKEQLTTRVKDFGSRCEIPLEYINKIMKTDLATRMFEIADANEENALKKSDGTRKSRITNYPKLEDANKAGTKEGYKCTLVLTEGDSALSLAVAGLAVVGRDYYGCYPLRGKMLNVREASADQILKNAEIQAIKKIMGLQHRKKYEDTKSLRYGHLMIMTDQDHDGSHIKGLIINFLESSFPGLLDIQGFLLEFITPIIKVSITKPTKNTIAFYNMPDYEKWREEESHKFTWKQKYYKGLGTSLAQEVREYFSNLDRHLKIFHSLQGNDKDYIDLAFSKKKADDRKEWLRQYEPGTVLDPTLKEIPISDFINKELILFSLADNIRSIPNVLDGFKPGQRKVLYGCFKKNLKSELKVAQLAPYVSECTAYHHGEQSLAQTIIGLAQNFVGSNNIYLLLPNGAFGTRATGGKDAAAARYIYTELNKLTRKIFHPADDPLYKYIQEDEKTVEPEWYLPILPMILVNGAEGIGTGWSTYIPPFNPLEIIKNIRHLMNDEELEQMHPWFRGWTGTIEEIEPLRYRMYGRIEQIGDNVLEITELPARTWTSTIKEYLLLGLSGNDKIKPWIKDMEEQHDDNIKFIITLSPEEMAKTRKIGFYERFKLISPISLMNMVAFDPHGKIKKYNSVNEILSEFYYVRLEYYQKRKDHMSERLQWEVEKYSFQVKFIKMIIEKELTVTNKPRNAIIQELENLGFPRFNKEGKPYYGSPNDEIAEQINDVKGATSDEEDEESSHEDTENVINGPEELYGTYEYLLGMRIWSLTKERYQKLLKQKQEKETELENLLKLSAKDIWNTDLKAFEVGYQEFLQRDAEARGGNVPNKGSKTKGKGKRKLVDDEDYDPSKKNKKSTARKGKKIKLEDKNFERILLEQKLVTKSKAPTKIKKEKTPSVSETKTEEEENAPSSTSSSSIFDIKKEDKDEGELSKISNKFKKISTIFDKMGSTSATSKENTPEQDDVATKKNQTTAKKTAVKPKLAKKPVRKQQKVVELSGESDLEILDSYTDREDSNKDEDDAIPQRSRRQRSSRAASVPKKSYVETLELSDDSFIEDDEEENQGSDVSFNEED
The experiment in a line: pull-down; about 0.1 mg Uls1 fragment (bait) pre-bound to Strep-Tactin superflow beads; 200 ul Top2 (prey, 0.1 mg/ml) added, 1 h at 4 C; Pulldown buffer 25 mM HEPES pH 7.5, 150 mM KCl, 3 mM MgCl2, 5% glycerol, 1 mM DTT, 0.1% NP-40; three washes. The settings on record: both partners purified.

B1: Uls1 fragment 350-655, purified bait (domain or fragment, budding yeast (S. cerevisiae), UniProt Q08562 350-655, looked up)
chain: PSKNMDHTTHNSHDSEQKNSSIIILSDEDESGAGINDIESPLKVSEPNTADALRSSVPEVISLLDLPNIDLNNSVIKEASGSNSIPTSETDAQSSSSSVLQGTIMTEQATQSSQHECNSSLDTLKKNHQKLLKDLNSRESELRNALSCCKTNSEILRRKLSRREKEVSDAEKHWQLLLTSMARGGRTISSTQQILVDEAENQLNKLKEKRQLTKSKLDSINLKMYNYNEQWKSFVHSKNINLQKSLAALERSARDSKASATVNKRNECLAEKEKLDQMLKEGTLSFSTYKQLTGEIQQKLNDLKLG
notes: Tags are inferred from the resins used; also called bait protein; source: E. coli BL21(DE3)RIL, purified (TALON resin)
For B1, the binding result is on record as “binds”.
